Square brackets hold non-standard residues; d marks the D form. Ends that are not written are not given here. Dhb = C/C=C(\N)C(=O)O

For experiment [1], the target named is (Z)-Dhb-containing 13-mer Erk peptide (DHTGFL-Dhb-EYVATR).
Experiment [2] has as its target T1, human LanCL1, wild type (His6-LanCL1) (human, UniProt O43813 1-399).
T1 construct: LanCL1 (LanC-like protein 1), human; The tag is named on the protein for crystallisation; for the fluorescence polarisation nothing is said of it; also called WT LanCL1; native LanCL1; source: E. coli Rosetta(DE3), pET15b, purified (HisTrap, Superdex 200)
As to the kind of experiment: crystal structure; cocrystals of His6-LanCL1 with GSH soaked in precipitant solution with 2 to 5 mM Dhb-Erk peptide (30, 60 or 90 min); 1.91 Å; the crystal holds the product of GSH addition to the peptide. The following applies: both partners purified.

Experiment [3] deals with T2, LanCL1 Wild Type (human LanC-like protein 1) (human, UniProt O43813 1-399).
T2 construct: LanC-like protein 1 (LanCL1), human; also called LanCL1 WT; WT-LanCL1; source: E. coli Rosetta 2 (DE3), purified (HisTrap Ni-NTA, PD-10 desalting)
As to the kind of experiment: fluorescence polarisation; competition: 20 μM LanCL1 WT, 20 nM fluorescein-Dha-Erk, acetyl peptide from 1000 μM in 2-fold dilutions; 15 min incubation; triplicates; dose-response fit, Ki = IC50/(1+[L]/Kd). The settings on record: both partners purified. In general terms: Polarisation of emitted light reports the rotation of a fluorescent probe.

T2 sequence (O43813 whole entry): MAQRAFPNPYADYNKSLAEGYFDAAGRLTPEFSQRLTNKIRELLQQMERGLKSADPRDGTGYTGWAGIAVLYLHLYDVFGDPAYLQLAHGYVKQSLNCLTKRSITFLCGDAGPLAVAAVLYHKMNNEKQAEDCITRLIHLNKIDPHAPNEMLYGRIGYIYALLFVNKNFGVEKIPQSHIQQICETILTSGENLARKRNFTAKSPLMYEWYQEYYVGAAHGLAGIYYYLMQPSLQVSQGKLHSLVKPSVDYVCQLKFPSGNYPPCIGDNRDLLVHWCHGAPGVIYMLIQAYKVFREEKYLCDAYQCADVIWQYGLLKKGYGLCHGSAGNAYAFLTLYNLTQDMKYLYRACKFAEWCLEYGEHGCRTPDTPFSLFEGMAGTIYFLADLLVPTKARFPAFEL
T1 sequence (O43813 whole entry): as above

With “LanCL1 C264A (from UniProt O43813 1-399) (enzyme)”, the K (m,peptide) of GSH addition to (Z)-Dhb-Erk peptide (LC-MS initial rates, saturating GSH) in experiment [1] was determined as 85 µM.
In the case of “LanCL1 C264A/H277K (from UniProt O43813 1-399) (enzyme)”, the kcat/K (m,peptide) of GSH addition to (Z)-Dhb-Erk peptide; substrate saturation could not be achieved in experiment [1] is 160 M⁻¹ min⁻¹.
“LanCL1 C264A/H277N (from UniProt O43813 1-399) (enzyme)” came in with a K (m,peptide) of GSH addition to (Z)-Dhb-Erk peptide (LC-MS initial rates, saturating GSH) in experiment [1] of 417 µM.
In the case of “LanCL1 C264A/H277A (from UniProt O43813 1-399) (enzyme)”, in experiment [1], the K (m,peptide) of GSH addition to (Z)-Dhb-Erk peptide (LC-MS initial rates, saturating GSH) turned out to be 240 µM.
The molecule “LanCL1 C264A/H277Y (from UniProt O43813 1-399) (enzyme)” gave a K (m,peptide) of GSH addition to (Z)-Dhb-Erk peptide (LC-MS initial rates, saturating GSH) in experiment [1] of 69 µM.
“LanCL1 C264A/H277D (from UniProt O43813 1-399) (enzyme)”: the kcat/K (m,peptide) of GSH addition to (Z)-Dhb-Erk peptide; substrate saturation could not be achieved in experiment [1] amounted to 370 M⁻¹ min⁻¹.

B1: (Z)-Dhb-containing 13-mer Erk peptide (DHTGFL-Dhb-EYVATR) (peptide)
peptide: DHTGFL[Dhb]EYVATR
modifications: also: in the crystal Dhb reacted with GSH to form a methyllanthionine
notes: In PDB 8CZK density was seen only for the GFL-Dhb-EY segment, covalently joined to glutathione; also called Dhb-Erk; Dhb-Erk peptide
With B1, in experiment [2], the binding result is on record as “binds”.

B2: acetyl-Ala-Erk peptide (peptide)
peptide: Ac-DHTGFLAEYVATR
notes: Numbers count on: the synthetic 13-mer; Its preparation is not described; also called Ac-Ala-Erk
Consider B2, for which, in experiment [3], the IC50 (as a rule, the point on the concentration scale where inhibition reaches its midpoint) stood at 850 ± 490 µM and the Ki – broadly, the equilibrium dissociation constant of an inhibitor or competing ligand from its target – came out at 849 ± 489 µM.

Source of the values: PMC9934072, “The mechanism of thia-Michael addition catalyzed by LanC enzymes” (Proceedings of the National Academy of Sciences of the …, 2023).
